{"source": "IntAct's records for PubMed 25117763", "parents": {"B1": {"name": "Axin interactor, dorsalization-associated protein (Mus musculus), Q8C4Q6-1 (parent)", "chain": "MSEVTRSLLQRWGASLRRGADFDSWGQLVEAIDEYQILARHLQKEAQAQHNNSEFTEEQKKTIGKIATCLELRSAALQSTQSQEEFKLEDLKKLEPILKNILTYNKEFPFDVQPIPLRRILAPGEEENLEFEEDEEGGAGAGPPDSFSARVPGTLLPRLPSEPGMTLLTIRIEKIGLKDAGQCIDPYITVSVKDLNGIDLTPVQDTPVASRKEDTYVHFNVDIELQKHVERLTKGAAIFFEFKHYKPKKRFTSTKCFAFMEMDEIKPGPIVIELYKKPTDFKRKKLQLLTKKPLYLHLHQSLHKE"}}}
{"variants_of": "B1", "conditions": "with Axin1, O35625-2"}
{"variant": "MSEVTRSLLQRWGASLRRGADFDSWGQLVEAIDEYQILARHLQKEAQAQHNNSEFTEEQKKTIGKIATCLELRSAALQSTQSQEEFKLEDLKKLEPILKNILTYNKEFPFDVQPIPLRRILAPGEEENLEFEEDEEGGAGAGPPDSFSARVPGTLLPRLPSEPGMTLLTIRIEKIGLKDAGQCIDPYITVSVKDLNGIDLTPVQDTPVASRKEDTYVHFNVDIELQKHVERLTKGAAIFFEFKHYKPKKRFTSTKCFAFMEMDEIKPGPIVIELYKKPTDFAAAALQLLTKKPLYLHLHQSLHKE", "note": "[K282A;R283A;K284A;K285A]", "effect of a mutation on the interaction": "disrupting interaction"}
